Assay results taken from article PMC3311620.

Target: CXCR7-RLuc (human) (UniProt P25106)
Sequence of UniProt P25106 (P25106 whole entry): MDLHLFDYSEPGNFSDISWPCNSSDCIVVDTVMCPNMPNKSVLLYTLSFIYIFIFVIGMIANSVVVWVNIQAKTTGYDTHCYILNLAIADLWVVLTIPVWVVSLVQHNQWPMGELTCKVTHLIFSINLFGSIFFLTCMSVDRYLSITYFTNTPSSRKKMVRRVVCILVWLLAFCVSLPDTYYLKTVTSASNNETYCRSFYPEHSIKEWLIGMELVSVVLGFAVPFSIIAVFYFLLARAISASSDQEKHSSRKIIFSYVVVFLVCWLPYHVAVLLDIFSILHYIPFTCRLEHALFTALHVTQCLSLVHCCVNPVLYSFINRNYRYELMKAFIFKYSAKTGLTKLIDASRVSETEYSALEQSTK

pEC50 of CXCL11 for β-arrestin1-YFP recruitment to CXCR7-RLuc (BRET, HEK293T): 8.7
pEC50 of CXCL11 for β-arrestin2-YFP recruitment to CXCR7-RLuc (BRET, HEK293T): 8.5
B1: CXCL11 (I-TAC) (ligand)
chain: FPMFKRGRCLCIGPGVKAVKVADIEKASIMYPSNNCDKIEVIITLKENKGQRCLNPKSKQARLIIKKVERKNF
